Experimental data: patent CN101875694A

Target: 重组人肿瘤坏死因子TNFα (Recombinant Human TNF-α, Peprotech Asia, Cat 300-01A) (human) (UniProt P01375)
Assay: cell-based or functional assay

Chain of UniProt P01375 (P01375 77-233 limits assumed): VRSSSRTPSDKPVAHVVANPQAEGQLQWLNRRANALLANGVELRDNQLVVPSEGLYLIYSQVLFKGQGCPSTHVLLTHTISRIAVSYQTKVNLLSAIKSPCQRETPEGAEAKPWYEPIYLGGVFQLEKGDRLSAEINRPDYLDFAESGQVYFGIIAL

“野生型全长的D2E7抗体 (full-length wild-type D2E7) (antibody)” gave a 小鼠存活率, C57BL/6 given 1μg rhTNFα and D-galactosamine, 5μg antibody of 0%.
